US11786605B2, “Site specific antibody-drug conjugates with peptide-containing linkers” (Mersana Therapeutics, Inc., priority 2020, dated 2023)

Tests used:
FcγRI = FcγRI (Homo sapiens, UniProt P12314); test: Binding kinetics to FcγRI by Biolayer Interferometry; details: BLI, 25° C.
Description: (§1) The binding kinetics of the XMT-1535, Conjugate 7, and Conjugate 11 to Fc receptors (FcRn, FcγRI, FcγRIIA (H167), and FcγRIIIA (V176) were determined by Biolayer Interferometry (BLI; ForteBio Octet QKe) at 25° C. To test binding to Fcγ receptors, XMT-1535, Conjugate 7, and Conjugate 11 were diluted to 1 μg/mL in kinetics buffer (1×) and captured on anti-human Fab-CH1 (FAB2G) biosensors for 10 minutes. All dilutions and baseline measurements were done in kinetics buffer (1×). Baseline measurements were performed at […] before and after each capture step. Association measurements to the various Fc receptors were performed at 7 concentrations (from 1 μM to 100 nM, 2-fold serial dilutions) for 5 minutes. Dissociation was performed for 15 minutes. Binding constants were calculated with the global fit averages of the traces using a 1:1 model. Binding constants for XMT-1535, Conjugate 7, and Conjugate 11 to Fc receptors were determined using standard Octet procedures (ForteBio). Kinetic parameters were calculated using Octet software (ForteBio).
(§2) Tables IV-VII summarize the Kd (equilibrium dissociation constant), kon (rate of association), and koff (rate of dissociation) for human FcRn (Table IV), FcγRI (Table V), FcγRIIA H167 (Table VI), and FcγRIIIA […] (Table VII) for each test article.

FcγRIIA (H167) = molecular target: T1, FcγRIIA (H167) (Homo sapiens, UniProt P12318); test: Binding kinetics to FcγRIIA by Biolayer Interferometry; details: FcγRIIA H167, BLI, 25° C.
T1 sequence (P12318 34-217 limits assumed): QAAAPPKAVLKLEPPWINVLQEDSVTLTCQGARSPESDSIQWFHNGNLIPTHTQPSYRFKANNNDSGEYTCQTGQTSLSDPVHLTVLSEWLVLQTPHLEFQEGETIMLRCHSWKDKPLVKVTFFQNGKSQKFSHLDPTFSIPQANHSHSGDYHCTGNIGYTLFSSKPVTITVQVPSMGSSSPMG
Description: as §1, §2

human FcRn = molecular target: T2, human FcRn (Homo sapiens, UniProt P55899); test: Binding kinetics to FcRn by Biolayer Interferometry; details: BLI, 25° C., pH 6.0
T2 construct: purchased Immunitrack
Description: as §1
To test binding to FcRn receptor, association of XMT-1535, Conjugate 7, and Conjugate 11 to Fab-CH1 (FAB2G) biosensors was performed as described above. […] Association measurements to FcRn protein (Immunitrack) was measured at 7 concentrations (from 1 μM to 100 nM, 2-fold serial dilutions) for 5 minutes. […]

FcγRIIIA (V176) = test: Binding kinetics to FcγRIIIA by Biolayer Interferometry; design: species or system human; details: BLI, 25° C.
Description: as §1, §2

NaPi2b-derived peptide = molecular target: T3, NaPi2b-derived peptide (Homo sapiens, UniProt O95436); test: Binding kinetics to NaPi2b-derived peptide by Biolayer Interferometry; details: BLI, 25° C.
T3 construct: Genscript); purchased Genscript
T3 sequence (O95436 311-340 limits assumed): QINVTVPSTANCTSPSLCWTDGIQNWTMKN
Description: The binding kinetics of XMT-1535, Conjugate 7, and Conjugate 11 to immobilized NaPi2b-derived peptide antigen were determined by Biolayer Interferometry (BLI; Octet; ForteBio). Binding constants for XMT-1535, Conjugate 7, and Conjugate 11 were determined using standard Octet procedures (ForteBio). Biotinylated NaPi2b-derived peptide ([…]-biotin; Genscript) was immobilized to streptavidin octet sensors in kinetics buffer (10×). Sensors were then blocked in kinetics buffer (10×) with biocytin (50 μg/mL). Increasing concentrations of XMT-1535, Conjugate 7, or Conjugate 11 were then associated with immobilized peptide in kinetics buffer (10×).

FcγRI, sequence (P12314 16-374): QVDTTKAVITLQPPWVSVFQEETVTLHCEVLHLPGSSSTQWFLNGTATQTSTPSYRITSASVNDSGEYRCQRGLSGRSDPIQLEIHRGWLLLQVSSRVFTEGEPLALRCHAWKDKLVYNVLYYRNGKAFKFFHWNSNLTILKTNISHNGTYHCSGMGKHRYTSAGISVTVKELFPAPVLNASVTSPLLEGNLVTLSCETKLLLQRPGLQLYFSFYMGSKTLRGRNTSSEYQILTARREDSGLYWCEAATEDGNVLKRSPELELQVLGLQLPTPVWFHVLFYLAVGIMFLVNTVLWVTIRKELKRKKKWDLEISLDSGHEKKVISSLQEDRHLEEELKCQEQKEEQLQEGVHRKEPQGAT

koff Mean (FcγRI): 0.000192 s⁻¹
kon Mean (FcγRI): 1.28e+06 M⁻¹ s⁻¹
koff Mean (FcγRIIA (H167)): 0.308 s⁻¹
kon Mean (FcγRIIA (H167)): 175000 M⁻¹ s⁻¹
koff Mean (human FcRn): 0.000448 s⁻¹
kon Mean (human FcRn): 160000 M⁻¹ s⁻¹
koff Mean (FcγRIIIA (V176)): 0.146 s⁻¹
kon Mean (FcγRIIIA (V176)): 216000 M⁻¹ s⁻¹
koff, Mean Napi2b binding (NaPi2b-derived peptide): 1.27e-05 s⁻¹
kon, Mean Napi2b binding (NaPi2b-derived peptide): 170000 M⁻¹ s⁻¹
Substance: XMT-1535: anti-NaPi2b antibody
